The values that follow come from the DeepSol protein solubility set.

This series in a line: soluble on expression in E. coli; label from the status in PepcDB or PDB records.
As for “MPFIAAMWHGQHIMISFMSRPQDRVATIISRSPDGNINTMALTRMGVRVMRASGARGRAVKDARAKGGAEGLRAMVKALKGGETVAFSADVPKVSRVCLEHHHHHH”, the “soluble on expression in E. coli” value is “not soluble”.

For “MMFGRFTQRAQKVLALSQEEAMRLNHSNLGTEHILLGLVREGEGIAAKALYELGISSEKVQQEVEGLIGHGEKAVTTIQYTPRAKKVIELSMDEARKLGHTYVGTEHILLGLIREGEGVAARVLSNLGISLNKARQQVLQLLGGGDATGAGRQTNTQATPTLDSLARDLTVIAREDNLDPVIGRSKEIQRVIEVLSRRTKNNPVLIGEPGVGKTAIAEGLAQQIVRNEVPETLRGKRVMTLDMGTVVAGTKYRGEFEDRLKKVMDEIRQAGNVILFIDELHTLIGAGGAEGAIDASNILKPPLARGELQCIGATTLDEYRKYIEKDAALERRFQPIKVDEPTVEESIQILHGLRDRYEAHHRVAITDEALEAAVRLSDRYISDRFLPDKAIDVIDESGSKVRLKSFTTPKNVKEMENNLSDLKKEKDAAVQGQEFEKAASLRDKEQKLKKSLEETKANWQEKQGLDHSEVTEDIVAEVVASWTGIPVAKLAETETNKLLNMEKLLHERVIGQDAAVKAVSLAVRRARAGLKDPKRPIGSFIFLGPTGVGKTELARALAESMFGDEDSMIRIDMSEYMEKFSTARLVGAPPGYVGYEEGGQLTEKVRQKPYSVVLLDEIEKAHPDVFNMLLQVLDDGRLTDSKGRVVDFRNTVIIMTSNIGAQEMKQDKSMGFNVTDPLKDHKAMEHRVLQDLKQAFRPEFINRIDETIVFHSLQEKELKQIVTLLTAQLTKRLAERDIHVKLTEGAKSKIAKDGYDPEYGARPLKRAIQKEVEDMLSEELLRGNIKVGDYVEIGVKDGKLEVRKKDAPKKKTTSKKVKAK”, the “soluble on expression in E. coli” value was “not soluble”.

“MGSDKIHHHHHHMNDDIYDEMVRERGREYFLKNMVKYCVKRGNTLHGTVYGSDKYITKVDLKTKTGICTCPYQYNCKHAYALLESYKSGKYVDGDELFLNFSKLDKLEILKIFESIIEKHNLWDEFITEDKTLLDTAKNMLELTKIEKKNVFTFTSFLRNQFLKNAGNEELLLIIPDVIKYIQERKKLEEILFLIVDELFERGKTDKDTLKKLIELSRKYRELWMVKDNILDYEYFELLEY”: the “soluble on expression in E. coli” value was “not soluble”.

For the sequence “MTSIHVQVPATTANIGAGFDCLGAALSLHNQFQFRLAGESEPFFSLELVGADVETQKLEATADNLLYRAFAKVFATLGQPVPHVNIAIDLKVPLSRGLGSSATAIVGGLVGANALAGSPLSQREIMNLAIEMEGHPDNVVPALLGGCQLSVKHQQDWVI”, the “soluble on expression in E. coli” value is “not soluble”.

Take “MQEIIFIDEGSFPTPEGVTREWVQGAAENRDEDEKLFSIIREAFQIKIDAGVQVPTYPQFRDMIGQFFDIIKDEKNCHEPYVLKEERATILELEAIDEVAKQYKIETGKTLEVRVCIAGPTDMYYQAFGATAFVDVYDILAKDIEKFIKQAFKTAKNFKIKVIALDEIGLGLNDKIQFSDDEIISALTVASTFARQQGADVEIHVYSPLKYELICETPINVIGFEYAGNPSYIDLLDRKVLEDSDAYAGVGISRTDIFSLISIVNEKYGINAWKDKEYMQKIVTELETPDIIKKRLETAYSVLGDRIKYANPDCGLAFWPDQELAFRLLENTAKAVNEFNAEGIINKAAALEHHHHHH”: the “soluble on expression in E. coli” value was “not soluble”.

“MFQSSAAPAPQTADVTNPFGNFAAPSAFPTNVPPPAAHSAPFGVQPAPQHSAAPFYANLHQAPPMQSQAPNGHQAAPFGYPNAHPDDLARMTAQMSLNQQGAPAGWNTTTSAVSNNPFGATSAPQPMYTAPMGMYQQPFGAQPMWNPAMAAYGQQYGYGQPVPPQQQHQIQLVHAAMAAKNAAQAQQAQAASADPFGL”: the “soluble on expression in E. coli” value is listed as “not soluble”.

“MATNKREKQLERECHEQKTSQAVCETKEELEKSWKDFQKVSNEYKEAVTACRKYVEEKSRPKRTVLDGDMGEPTEDQEDTNDHARRRRHHNHEGHHGNDMKHRENMDRKKHGTHVDHHGRVRRNGDHDPNDPNVDHTGHNHRVKRSIDDDPSDTTIDHTRHNHRRKRNQDDDPTDTTIDHTGHNHRRRRSDDHDPNDPNVDHTGHNHRRKRNHDDDPSDTTIDHTGHNHRRRRSDDHDPNDPNVDHIGHNHHRRKRNHDDDPSDTTIDHTGHNHRRRRSEDHDPNDPNVDHTGHNHRRRRDQDDDPSDTTIDHTGHNHRRRRSDDHDPNDPNVDHTGHNHKRRHVIASRSRRTVCSTAGHDQLSAMSSKFTKHCERENICLPDEDLPKGKQQDDILALQKLRAKKYSEYLTQVSKCYGKLHGQSSGNDSWAPSAQSQEQYNPVYPSLSGTPNFFSSSAQAYEAAPYYPAKSTAAKTTSKPVQKPYRRHHQRPNKAWSSGSQQFHLVTIDPSKPHEKPSVSKIAEAAPKPIFKVARGTVKTVNKRGTKGVQKMPNHRLEGNSWETNGLQNQTARGGGGGRGRGRGSGGRGRGGFNRGGRFNGAPKPSNNKDDIPYVHLPDDSPAITLNVSSENITAFHGFDSVFTTKHNFPVLIDNKIYGSCDHYYQICKVTDLTGVSSDKLNRGVRDENGKPIVETIEDAEKKSHSALAKDIIKAANISKEKVDEWRNSKGLETIQKALHAKVTQSAHLREALKESGDNILVHAFARDSIYGTGCTIPAIKKWLDDLSKAGVKHLKIPATFPLNKTTVQHCPVFAQGRNVLGVILMQLRQKISSGEIQVVDMSRIFNALRVNNAPAEPMDTSSKFGFISDTKSIGTF”: the “soluble on expression in E. coli” value was “not soluble”.

For “MSELLTTYRPIKILLQLDPNLGNNSYNGRVKIDYEFTGETSEIKIQTSRDFQWTSVRLATFYDFNEGCPVYASVDCENYVHDAESEILTLPLGNPLTPETTENGFYIELEWTGPINPQGETTGLYAIDESTIEANMKDGNAHKVFPCYEGGVSAKFWLTVITDERTRVETNMDDAGHEEFEGRVKNNFLKEEELTIEDVYIYVTPIIDME”, the “soluble on expression in E. coli” value is on record as “not soluble”.

As to “MTTMNPFLVQSTLPYLAPHFDQIANHHYRPAFDEGMQQKRAEIAAIALNPQMPDFNNTILALEQSGELLTRVTSVFFAMTAAHTNDELQRLDEQFSAELAELANDIYLNGELFARVDAVWQRRESLGLDSESIRLVEVIHQRFVLAGAKLAQADKAKLKVLNTEAATLTSQFNQRLLAANKSGGLVVNDIAQLAGMSEQEIALAAEAAREKGLDNKWLIPLLNTTQQPALAEMRDRATREKLFIAGWTRAEKNDANDTRAIIQRLVEIRAQQATLLGFPHYAAWKIADQMAKTPEAALNFMREIVPAARQRASDELASIQAVIDKQQGGFSAQPWDWAFYAEQVRREKFDLDEAQLKPYFELNTVLNEGVFWTANQLFGIKFVERFDIPVYHPDVRVWEIFDHNGVGLALFYGDFFARDSKSGGAWMGNFVEQSTLNKTHPVIYNVCNYQKPAAGEPALLLWDDVITLFHEFGHTLHGLFARQRYATLSGTNTPRDFVEFPSQINEHWATHPQVFARYARHYQSGAAMPDELQQKMRNASLFNKGYEMSELLSAALLDMRWHCLEENEAMQDVDDFELRALVAENMDLPAIPPRYRSSYFAHIFGGGYAAGYYAYLWTQMLADDGYQWFVEQGGLTRENGLRFREAILSRGNSEDLERLYRQWRGKAPKIMPMLQHRGLNI”, the “soluble on expression in E. coli” value is given as “soluble”.

As to “MKHHHHHHMTFPGDTAVLVLAAGPGTRMRSDTPKVLHTLAGRSMLSHVLHAIAKLAPQRLIVVLGHDHQRIAPLVGELADTLGRTIDVALQDRPLGTGHAVLCGLSALPDDYAGNVVVTSGDTPLLDADTLADLIATHRAVSAAVTVLTTTLDDPFGYGRILRTQDHEVMAIVEQTDATPSQREIREVNAGVYAFDIAALRSALSRLSSNNAQQELYLTDVIAILRSDGQTVHASHVDDSALVAGVNNRVQLAELASELNRRVVAAHQLAGVTVVDPATTWIDVDVTIGRDTVIHPGTQLLGRTQIGGRCVVGPDTTLTDVAVGDGASVVRTHGSSSSIGDGAAVGPFTYLRPGTALGADGKLGAFVEVKNSTIGTGTKVPHLTYVGDADIGEYSNIGASSVFVNYDGTSKRRTTVGSHVRTGSDTMFVAPVTIGDGAYTGAGTVVREDVPPGALAVSAGPQRNIENWVQRKRPGSPAAQASKRASEMACQQPTQPPDADQTP”, the “soluble on expression in E. coli” value is listed as “soluble”.
